This is an account of results in EP3168228A1 (Spiber Technologies AB, dated 2017).

Positions count from the first letter of the chain named. Names may count otherwise.

Series [1] concerns the molecule itself. In words: gel filtration on Superdex-200, self-association. A general note: Size exclusion chromatography separates by hydrodynamic size, large species first.
Series [2] deals with the molecule itself. Kind of series: SDS-PAGE under non-reducing conditions after thrombin cleavage, self-association.
Series [3] deals with the molecule itself. Kind of series: gel filtration in 20 mM Tris, pH 8, self-association.
Series [4] deals with wildtype NT (NTwt), N-terminal fragment of Euprosthenops australis major spidroin 1 (MaSp1) (Euprosthenops australis). Kind of series: tryptophan fluorescence ratio 339/351 nm against pH, 5 µM protein, two-state fit of the monomer-dimer equilibrium.
Series [5] concerns the molecule itself. Kind of series: tryptophan fluorescence ratio 339/351 nm against pH (self-association, dimerization).

B1: NTD40K/K65D-β17 fusion protein (other)
chain: MGHHHHHHMSHTTPWTNPGLAENFMNSFMQGLSSMPGFTASQLDKMSTIAQSMVQSIQSLAAQGRTSPNDLQALNMAFASSMAEIAASEEGGGSLSTKTSSIASAMSNAFLQTTGVVNQPFINEITQLVSMFAQAGMNDVSAGNSLVPRGSMGEQKLISEEDLGMQISMDYEIKFHGDGDNFDLNLDDSGGDLQLQIRGPGGRVHVHIHSSSGKVDFHVNNDGGDVEVKMH
As for B1, in series [1], the binding result is listed as “binds”.

B2: Bri2113-231 protein (Bri2-BRICHOS), truncated BRICHOS domain of Bri2 (other)
chain: QTIEENIKIFEEEEVEFISVPVPEFADSDPANIVHDFNKKLTAYLDLNLDKCYVIPLNTSIVMPPRNLLELLINIKAGTYLPQSYLIHEHMVITDRIENIDHLGFFIYRLCHDKETYKL
notes: Released from the NT fusion proteins by thrombin; A 12 kDa band is said to be a truncated form, probably cleaved unspecifically by thrombin; also called Bri2 BRICHOS domain
On to B2, for which, in series [2], the binding result is “binds”.

B3: NTwt-Bri2113-231 fusion protein (other)
chain: MGHHHHHHMSHTTPWTNPGLAENFMNSFMQGLSSMPGFTASQLDDMSTIAQSMVQSIQSLAAQGRTSPNKLQALNMAFASSMAEIAASEEGGGSLSTKTSSIASAMSNAFLQTTGVVNQPFINEITQLVSMFAQAGMNDVSAGNSLVPRGSQTIEENIKIFEEEEVEFISVPVPEFADSDPANIVHDFNKKLTAYLDLNLDKCYVIPLNTSIVMPPRNLLELLINIKAGTYLPQSYLIHEHMVITDRIENIDHLGFFIYRLCHDKETYKL
notes: also called NTwt-Bri2-BRICHOS
For B3, the binding result in series [3] is reported as “binds”.

B4: NTD40K/K65D-Bri2113-231 fusion protein (other)
chain: B3 chain with D45K, K70D
notes: also called NTD40K/K65D-Bri2-BRICHOS
Turning to B4, the binding result in series [3] is on record as “binds”.

B5: wildtype NT (NTwt), N-terminal fragment of Euprosthenops australis major spidroin 1 (MaSp1) (protein)
chain: SHTTPWTNPGLAENFMNSFMQGLSSMPGFTASQLDDMSTIAQSMVQSIQSLAAQGRTSPNKLQALNMAFASSMAEIAASEEGGGSLSTKTSSIASAMSNAFLQTTGVVNQPFINEITQLVSMFAQAGMNDVSA
Consider B5, for which the pKa of dimerization in series [4] stood at 6.5 pH.

B6: NTD40K/K65D, charge-reversed double mutant of the NT fragment of Euprosthenops australis MaSp1 (other)
chain: B5 chain with D36K, K61D
notes: also called charge-reversed NT mutant; mutant NT
Turning to B6, in series [5], the binding result is “no binding (tested: 5 µM protein, pH 5.6-8.0)”.
